Source: patent US20200362034A1 (KINDRED BIOSCIENCES, published 2020)

How the values were obtained:
[1] = target: human glucagon ligand peptide-1 receptor (GLP1R) (human, UniProt P43220 24-463); test: cell-based or functional assay
FeGLP1R-N-huFc_PolyHis = FeGLP1R-N-huFc_PolyHis (feline, biotinylated (sites not given) in the Octet assay); test: biolayer interferometry (Octet); biotinylated FeGLP1R-N-huFc_PolyHis on streptavidin tips; 1:1 fit
Description: Briefly, FeGLP1R-N-huFc_PolyHis was biotinylated, the free unreacted biotin was removed, and the biotinylated protein was captured to streptavidin sensor tips. […] Dissociation was monitored for 600 seconds. A buffer only blank curve was subtracted to correct for any drift. […] The buffer for dilutions and all binding steps was: 20 mM phosphate, 150 mM NaCl, pH 7.2.

FeGLP1R-N-huFc_PolyHis (feline, biotinylated (sites not given) in the Octet assay), sequence (chain, as listed by the source): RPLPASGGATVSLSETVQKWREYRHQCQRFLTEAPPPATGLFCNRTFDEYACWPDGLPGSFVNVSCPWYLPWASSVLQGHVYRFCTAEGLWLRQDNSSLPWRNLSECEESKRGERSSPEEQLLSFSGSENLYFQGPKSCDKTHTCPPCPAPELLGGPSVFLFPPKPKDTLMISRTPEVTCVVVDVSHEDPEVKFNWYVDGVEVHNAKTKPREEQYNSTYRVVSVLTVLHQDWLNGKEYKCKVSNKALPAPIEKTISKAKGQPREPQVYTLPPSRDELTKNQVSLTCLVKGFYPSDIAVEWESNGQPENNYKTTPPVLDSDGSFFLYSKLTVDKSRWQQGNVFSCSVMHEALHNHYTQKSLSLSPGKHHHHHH

| Binder | EC 50 (nM), cAMP Hunter bioassay on CHO-K1 cells overexpressing human GLP1R [1] | Kd (FeGLP1R-N-huFc_PolyHis) |
| --- | --- | --- |
| GLP1-G8_I_VARfeIgG2 (Fc fusion, Formula I contiguous polypeptide made in CHO cells; The Fc chains pair through hinge disulfides; also called GLP1 MB variant; GLP1-B) HGEGTFTSDVSSYLEGQAAKEFIAWLVKGGGGSGGGGSGGGGSGGGGSPKTASTIESKTGECPKCPVPEIPGAPSVFIFPPKPKDTLSISRTPEVTCLVVDLGPDDSNVQITWFVDNTEMHTAKTRPREEQFNSTYRVVSVLPILHQDWLKGKEFKCKVNSKSLPSAMERTISKAKGQPHEPQVYVLPPTQEELSENKVSVTCLIKGFHPPDIAVEWEITGQPEPENNYQTTPPQLDSDGTYFLYSRLSVDRSHWQRGNTYTCSVSHEALHSHHTQKSLTQSPGK | 0.0281 nM | 8 to 16 nM |
| GLP1-G8/GLP1-2G_III_VARfeIgG2 (Fc fusion) HGEGTFTSDVSSYLEGQAAKEFIAWLVKGGGGSGGGGSGGGGSGGGGSPKTASTIESKTGECPKCPVPEIPGAPSVFIFPPKPKDTLSISRTPEVTCLVVDLGPDDSNVQITWFVDNTEMHTAKTRPREEQFNSTYRVVSVLPILHQDWLKGKEFKCKVNSKSLPSAMERTISKAKGQPHEPQVYVLPPTQEELSENKVSVTCLIKGFHPPDIAVEWEITGQPEPENNYQTTPPQLDSDGTYFLYSRLSVDRSHWQRGNTYTCSVSHEALHSHHTQKSLTQSPGKGGGGSGGGGHAEGTFTSDVSSYLEGQAAKEFIAWLVKGGG | 0.0175 nM |  |
